The source of these data is publication PMC5454392, “Selective BET bromodomain inhibition as an antifungal therapeutic strategy” (Nature Communications, 2017).

Assay [1] deals with T1, CaBdf1 BD2 (GST-tagged, wild-type) (Candida albicans (strain SC5314 / ATCC …, UniProt Q5A4W8)).
T1 chain: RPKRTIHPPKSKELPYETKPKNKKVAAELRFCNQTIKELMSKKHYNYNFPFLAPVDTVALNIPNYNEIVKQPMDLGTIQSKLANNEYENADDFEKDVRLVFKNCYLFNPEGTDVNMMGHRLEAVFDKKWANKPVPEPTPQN
The assay can be described thus: histone peptide array (Active Motif MODified), 1 uM GST-tagged bromodomain, anti-GST detection, normalized mean intensity.

Assay [2] has as its target T2, CaBdf1 BD1 (GST-tagged, wild-type) (Candida albicans (strain SC5314 / ATCC …, UniProt Q5A4W8)).
T2 chain: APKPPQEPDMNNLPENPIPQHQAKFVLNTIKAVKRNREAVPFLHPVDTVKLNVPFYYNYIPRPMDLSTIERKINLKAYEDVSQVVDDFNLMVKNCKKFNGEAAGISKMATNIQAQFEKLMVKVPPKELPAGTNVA
The assay is described as above.

Square brackets hold non-standard residues; d marks the D form. Ends that are not written are not given here. Arg(Me2a) = CN(C)C(=N)NCCC[C@H](N)C(=O)O; pS = N[C@@H](COP(=O)(O)O)C(=O)O; Me2a = not defined here

For the molecule PRKQLATKAAR(Me2s)K(Me)[pS]APATGG [H3 16-35], the binding score in assay [1] turned out to be 0.00259; in assay [2], 0.00254.

In the case of ARTKQTARKSTGGKAPRKQ (A R T K Q T A Rme2s Kac S pT G G K A P R K Q), the values for the binding score in assay [1] and in assay [2] were 0.00407 and 0.00363, respectively.

Turning to AR(Me2a)TK(Me3)QTARK(Me2)STGGKAPRKQ (reading uncertain), the binding score in assay [1] was 0.00296; in assay [2], 0.00145.

As for ARTKQTARKSTGGKAPRKQ (A R T K Q T A Rme2s Kme3 S pT G G K A P R K Q), the binding score was 0.0037 in assay [1] and 0.00399 in assay [2].

For the molecule SGRGKQGGKARAKAKSRSS (not fully specified) [H2a 1-19], the binding score turned out to be 0.00259 in assay [1] and 0.0087 in assay [2].

For ARTKQTARKSTGGKAPRKQ (A Rme2a T Kme1 Q T A Rme2a Kac S T G G K A P R K Q), the binding score in assay [1] turned out to be 0.00333; in assay [2], 0.0254.

Consider A[Arg(Me2a)]TKQTARKSTGGKAPRKQ, for which the binding score in assay [1] turned out to be 0.00296; in assay [2] it was 0.000363.

As for ARTKQTARKSTGGKAPRKQ (A Rme2a T Kme3 Q T A Rme2s Kac S T G G K A P R K Q), the figures for the binding score in assay [1] and in assay [2] were 0.0037 and 0.0337, respectively.

In the case of A[Arg(Me2a)]TK(Ac)QTARKSTGGKAPRKQ, the binding score in assay [1] came to 0.00148; in assay [2], 0.00363.

Consider ARTKQTARKSTGGKAPRKQ (A R pT Kme2 Q T A R K S T G G K A P R K Q), for which the binding score was 0.0037 in assay [1] and 0.00326 in assay [2].
